Measurements from patent US20200308301A1 (Novartis, published 2020).

B1: NOV1401 (antibody, human IgG1, lambda, V domains shown)
VH: QVQLLESGGGLVQPGGSLRLSCAASGFTFSTAAMSWVRQAPGKGLEWVSGISGSGSSTYYADSVKGRFTISRDNSKNTLYLQMNSLRAEDTAVYYCARELSYLYSGYYFDYWGQGTLVTVSS
VL: QSVLTQPPSASGTPGQRVTISCSGSSSNIGSNDVSWYQQLPGTAPKLLIYKNYNRPSGVPDRFSGSKSGTSASLAISGLQSEDEADYYCSAWDQRQFDVVFGGGTKLTVLG
notes: It was amine-coupled to the chip in SPR, and used soluble and biotinylated in SET; also called anti-FXI/FXIa antibody NOV1401; anti-Factor XI/FXIa antibody NOV1401
B2: IDT1 (Fab, V domains shown)
VH: QVQLLESGGGLVQPGGSLRLSCAASGFTFSDYAMSWVRQAPGKGLEWVSVIDYSSSNTYYADSVKGRFTISRDNSKNTLYLQMNSLRAEDTAVYYCAREGYSYRSIRFDYWGQGTLVTVSS
VL: DIQMTQSPSSLSASVGDRVTITCRASQSISSNLNWYQQKPGKAPKLLIYAASNLQSGVPSRFSGSGSGTDFTLTISSLQPEDFATYYCLQFDHTPFTFGQGTKVEIKR
notes: Fab (heavy chain is VH-CH1); also called anti-NOV1401 Fab IDT1

How the values were obtained:
[1] = target: T1, IDT8; assay: SET: soluble NOV1401 titrated against constant IDT8 Fab; competitor is plate-bound biotinylated NOV1401; free Fab read as RLU
T1 construct: Fab; also called anti-NOV1401 Fab IDT8
Procedure: (§1) 14 serial (2×) dilutions of NOV1401 were prepared in sample buffer (PBS pH 7.4 containing 0.5% (w/v) BSA and 0.02% Tween 20) and a constant concentration of the anti-NOV1401 Fab or IgG was added to each NOV1401 concentration ranging from 40 pM to 240 pM. Optimal constant anti-NOV1401 Fab or IgG concentrations and optimal starting concentrations for NOV1401 dilution series were determined in pilot experiments.
(§2) 30 µl/well of each dilution mix was distributed in duplicates to a 384-well polypropylene Eppendorf microplate (MTP). Sample buffer served as negative control and a sample containing no antigen as positive control (Bmax). The plate was sealed and incubated overnight at RT on a plate shaker.
(§3) After incubation and three times washing with PBST (PBS containing 0.05% Tween 20) 30 μl/well of the NOV1401/anti-NOV1401 Fab or IgG preparation was transferred from the polypropylene MTP to the NOV1401-coated SA plate and incubated for 30 min at RT on a MTP shaker. After three additional wash steps, 30 μl of 0.5 μg/ml detection antibody (Goat anti-human Kappa LC-HRP, BETHYL # A80-115P) diluted in sample buffer was added to each well and incubated for 1 h at RT with shaking. […] Electrochemiluminescence (ECL) signals were generated and detected immediately with a luminescence imager (SpectraMax M5, Molecular Devices, LLC).

[2] = target: T2, IDT4; assay: SET: soluble NOV1401 titrated against constant IDT4 Fab; competitor is plate-bound biotinylated NOV1401; free Fab read as RLU
T2 construct: Fab; also called anti-NOV1401 Fab IDT4
Procedure: as §1, §2, §3

[3] = target: T3, IDT11; assay: SET: soluble antigen (NOV1401 by the legend and Example 2, axis labelled MAA868) titrated against constant IDT11 IgG; competitor is plate-bound biotinylated NOV1401; free IgG read as RLU
T3 construct: also called anti-NOV1401 IgG IDT11; full length IgG format for IDT1
Procedure: as §1, §2, §3

[4] = target: T4, IDT10; assay: SET: soluble NOV1401 titrated against constant IDT10 Fab; competitor is plate-bound biotinylated NOV1401; free Fab read as RLU
T4 construct: Fab; also called anti-NOV1401 Fab IDT10
Procedure: as §1, §2, §3

[5] = target: T5, IDT7; assay: SET: soluble NOV1401 titrated against constant IDT7 Fab; competitor is plate-bound biotinylated NOV1401; free Fab read as RLU
T5 construct: Fab; also called anti-NOV1401 Fab IDT7
Procedure: as §1, §2, §3

[6] = target: T6, IDT12; assay: SET: soluble antigen (NOV1401 by the legend and Example 2, axis labelled MAA868) titrated against constant IDT12 IgG; competitor is plate-bound biotinylated NOV1401; free IgG read as RLU
T6 construct: also called anti-NOV1401 IgG IDT12; full length IgG format for IDT2
Procedure: as §1, §2, §3

[7] = target: T7, IDT3; assay: SET: soluble NOV1401 titrated against constant IDT3 Fab; competitor is plate-bound biotinylated NOV1401; free Fab read as RLU
T7 construct: Fab; also called anti-NOV1401 Fab IDT3
Procedure: as §1, §2, §3

[8] = target: T8, IDT5; assay: SET: soluble NOV1401 titrated against constant IDT5 Fab; competitor is plate-bound biotinylated NOV1401; free Fab read as RLU
T8 construct: Fab; also called anti-NOV1401 Fab IDT5
Procedure: as §1, §2, §3

[9] = target: T9, IDT9; assay: SET: soluble NOV1401 titrated against constant IDT9 Fab; competitor is plate-bound biotinylated NOV1401; free Fab read as RLU
T9 construct: Fab; also called anti-NOV1401 Fab IDT9
Procedure: as §1, §2, §3

[10] = target: Human FXI in normal human plasma (human, UniProt P03951 19-625); assay: cell-based or functional assay
[11] = target: B1; assay: Solution equilibrium titration (SET), 1:1 fit, average
Procedure: as §1
After incubation and three times washing with PBST (PBS containing 0.05% Tween 20) 30 μl/well of the NOV1401/anti-NOV1401 Fab or IgG preparation was transferred from the polypropylene MTP to the NOV1401-coated SA plate and incubated for 30 min at RT on a MTP shaker. After three additional wash steps, 30 μl of 0.5 μg/ml detection antibody (Goat anti-human Kappa LC-HRP, BETHYL # A80-115P) diluted in sample buffer was added to each well and incubated for 1 h at RT with shaking. After washing the plate again three times, 30 μl of detection reagent (LumiGLO Peroxidase Chemiluminescent Substrate, KPL #54-61-01) was added to each well. Electrochemiluminescence (ECL) signals were generated and detected immediately with a luminescence imager (SpectraMax M5, Molecular Devices, LLC).
Average ECL-signals were calculated from duplicate measurements within each assay. Data were baseline adjusted by subtracting the lowest value from all data points and plotted against the corresponding antigen concentration. KD values were determined by fitting the plot with the following non-linear curve fitting model for 1:1 binding according to Haenel et al 2005: […]

[12] = target: B1; assay: SPR (ProteOn XPR36), NOV1401 immobilized, Fab as analyte, 1:1 Langmuir fit, average
Procedure: SPR binding experiments were performed on a ProteOn XPR36 instrument (Bio-Rad Laboratories, Inc.) in PBS/T buffer (50 mM phosphate, 150 mM NaCl, pH 7.4, 0.005% v/v Tween-20) at 25° C. NOV1401 (‘Ligand’) was immobilized onto an activated ProteOn GLC sensor chip (Bio-Rad Laboratories, Inc.) using standard amine coupling procedures as described by the manufacturer. Briefly, NOV1401 was injected at a concentration of 10 μg/ml in 20 mM sodium acetate, pH 5.0 and at a flow rate of 30 μl/min for 10 min. Unreacted groups were blocked by injecting 1 M ethanolamine.
For kinetic studies anti-NOV1401 Fabs (‘Analytes’) were diluted in PBS/T buffer to generate a dilution series with concentrations ranging from 0.125-4 nM. Fabs were injected onto surfaces with immobilized NOV1401 at a flow rate of 100 μL/min and sensorgrams were recorded for association and dissociation times of 220 s and 1800 s, respectively. Blank surfaces were used for background corrections. There was no need to regenerate surfaces since the ProteOn protein interaction array system allows to run up to six binding experiments on an identical surface in parallel.
Data processing and analysis including kon, koff, and KD determination were performed with the ProteOn Manager™ software version 3.1.0.6.

[13] = target: B1; assay: cell-based or functional assay
[14] = target: T10, Human plasma-derived FXIa (human, UniProt P03951 19-625); assay: SPR, FXIa immobilized on GLC chip
T10 construct: also called Factor XIa
Procedure: SPR experiments were performed in principle as described in Example 2 with the following changes. Human plasma-derived FXIa was used as ligand and immobilized on an activated ProteOn GLC sensor chip (Bio-Rad Laboratories, Inc.) using standard amine coupling procedures as described and by injecting FXIa at a concentration of 10 μg/ml in 20 mM sodium acetate, pH 5.0 and at a flow rate of 30 μl/min for 10 min.
For binding competition studies NOV1401 and three mixture of NOV1401 with anti-NOV1401 Fab at molar ratios of 1:1, 1:2, and 1:10 were prepared in PBS/T buffer and injected in simultaneously onto surfaces with immobilized FXI at a flow rate of 100 μL/min. Sensorgrams were recorded for association and dissociation times of 220 s and 1800 s, respectively. Blank surfaces were used for background corrections.

[15] = target: B1; assay: cell-based or functional assay; remark: listed apart in the source

Binder | binding result [1] | binding result [2] | IC50 (read off the curve) [3] | binding result [4] | binding result [5] | IC50 (read off the curve) [6] | binding result [7] | binding result [8] | binding result [9] | TGA in human plasma: IC50 of NOV1401 for reduction of peak thrombin [10] | Kd [11] | Kd [12] | aPTT percentage reversal, NOV1401/anti NOV1401 ratio 1/1 (n/n) [13] | aPTT percentage reversal, NOV1401/anti NOV1401 ratio 1/3 (n/n) [13] | aPTT percentage reversal, NOV1401/anti NOV1401 ratio 1/10 (n/n) [13] | binding result [14] | TGA percentage reversal, NOV1401/anti NOV1401 ratio 1/1 (n/n) [15] | TGA percentage reversal, NOV1401/anti NOV1401 ratio 1/3 (n/n) [15] | TGA percentage reversal, NOV1401/anti NOV1401 ratio 1/10 (n/n) [15]
B1 | binds | binds | ~0.008 nM | binds | binds | ~0.01 nM | binds | binds | binds | 50 nM |  |  |  |  |  |  |  |  | 
B2 |  |  |  |  |  |  |  |  |  |  | 0.11 nM | 0.44 nM | 12% | 45% | 64% | no binding | 49% | 55% | 55%
